pKd: −log10 of the molar value.
What was measured:
[1] = target: HER2 on human cancer cell lines (NCI-N87, BT474, SK-OV-3, SNU-1, SNU-5, SNU-601) (human) (UniProt P04626); experiment: flow cytometry Fc load, BT474 cells
[2] = target: HER2 on human cancer cell lines (NCI-N87, BT474, SK-OV-3, SNU-1, SNU-5, SNU-601) (human) (UniProt P04626); experiment: flow cytometry Fc load, SNU-1 cells
[3] = target: HER2 on human cancer cell lines (NCI-N87, BT474, SK-OV-3, SNU-1, SNU-5, SNU-601) (human) (UniProt P04626); experiment: flow cytometry Fc load, SNU-5 cells
[4] = target: HER2 on human cancer cell lines (NCI-N87, BT474, SK-OV-3, SNU-1, SNU-5, SNU-601) (human) (UniProt P04626); experiment: flow cytometry Fc load, NCI-N87 cells
[5] = target: HER2 on human cancer cell lines (NCI-N87, BT474, SK-OV-3, SNU-1, SNU-5, SNU-601) (human) (UniProt P04626); experiment: flow cytometry Fc load, SK-OV-3 cells
[6] = target: human HER2 recombinant protein (R&D systems, 1129-ER) (human) (UniProt P04626); experiment: BLI sequential binding on HER2-loaded sensor
[7] = target: human FcγIIA (R&D systems, 1330-CD) (human) (UniProt P12318); experiment: BLI, His-FcγRIIA on HIS1K sensor
[8] = target: human FcγRI (R&D systems, 1257-FC) (human) (UniProt P12314); experiment: BLI, His-FcγRI on HIS1K sensor
[9] = target: HER2 on human cancer cell lines (NCI-N87, BT474, SK-OV-3, SNU-1, SNU-5, SNU-601) (human) (UniProt P04626); experiment: flow cytometry Fc load, SNU5 cells
[10] = target: HER2 on human cancer cell lines (NCI-N87, BT474, SK-OV-3, SNU-1, SNU-5, SNU-601) (human) (UniProt P04626); experiment: flow cytometry Fc load, SNU601 cells
[11] = target: human HER2 on CT26-HER2 cell line (Clone #2-60) (human) (UniProt P04626); experiment: flow cytometry Fc load, CT26-HER2 (#2-60) cells

Sequence of human FcγIIA (R&D systems, 1330-CD) (human) (P12318 36-218 H167R): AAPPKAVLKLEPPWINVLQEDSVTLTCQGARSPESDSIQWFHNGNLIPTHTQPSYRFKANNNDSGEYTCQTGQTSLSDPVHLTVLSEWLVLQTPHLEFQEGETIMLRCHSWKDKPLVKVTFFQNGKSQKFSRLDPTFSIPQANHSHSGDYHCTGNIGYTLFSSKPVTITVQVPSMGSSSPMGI
Sequence of human FcγRI (R&D systems, 1257-FC) (human) (P12314 16-288 limits assumed): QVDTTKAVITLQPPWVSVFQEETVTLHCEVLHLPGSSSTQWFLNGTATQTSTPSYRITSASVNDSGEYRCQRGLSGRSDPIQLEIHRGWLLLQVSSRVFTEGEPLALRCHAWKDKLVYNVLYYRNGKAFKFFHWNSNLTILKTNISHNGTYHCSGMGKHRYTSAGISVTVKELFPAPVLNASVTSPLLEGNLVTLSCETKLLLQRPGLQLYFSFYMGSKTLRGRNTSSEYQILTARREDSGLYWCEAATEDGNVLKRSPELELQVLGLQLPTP

Row | GMFI [1] | GMFI [2] | GMFI [3] | GMFI [4] | GMFI [5] | binding signal (nm shift, value at 4140 s minus value at 1260 s) [6] [nm] | pKd [7] | pKd [8] | GMFI [9] | GMFI [10] | GMFI [11] | Substance
1 | 38700 | 2690 | 1390 | 137000 | 6450 | 0.923 | – | – | – | – | – | trastuzumab + pertuzumab (combination)
2 | – | – | – | – | – | – | 6.44 | – | – | – | – | pertuzumab (antibody)
3 | – | – | – | – | – | – | 6.51 | 8.61 | 101 | 173 | 150 | human IgG1 (Bio X cell, BE0297) (antibody)
